Source: publication PMC4264339 (Virology Journal, 2014)

Tests used:
[1] = target: HA protein on FJ13 virus (A/duck/Fujian/13/2002, H5N1), virus particles (Influenza A virus A/duck/Fujian/13/2002 …, UniProt Q9Q0U6, strain); experiment: ELISA; details: one partner purified
[2] = target: HA protein of FJ13 virus in infected MDCK cells (Influenza A virus A/duck/Fujian/13/2002 …, UniProt Q9Q0U6, strain); experiment: immunostaining of cells or tissue; details: partners not purified

B1: scFv3 secreted from DF-1 cells, c-Myc tagged (scFv, V domains shown)
VH: AVTLDESGGGLQTPGGALSLVCKASGFTFSSYDMYWVRQAPGKGLEFVAIINSGGSTSYYASAVKGRATISRDNGQSTVRLQLNNLRADDTGTYYCAKGPSAIDAWGHGTEVIVSS
VL: ALTQPSSVSANPGETVKITCSGGSSTYGYSWHQQKSPGSAPVTVVYSNDERPSDIPSRFSGSKSGSTGTLTITGVQADDEAIYYCGTYGSTDSGYVGIFGARTTLTVL
[1]
  binding result: binds
[2]
  binding result: binds
